Several values for one entry are separate records, joined by “and”; a condition that tells them apart may be missing. Equal values may be shown once.
What was measured:
[1] = target: T1, biotin-labeled human CD137 fused to human IgG1 Fc fragment (human, biotin-labeled); test: bead ELISA, IgG on biotin-human CD137-Fc; signal with free CD3e 62.5 pmol against free Fc 62.5 pmol
T1 construct: also called human CD137-Fc; biotin-human CD137-Fc

[2] = target: T1, biotin-labeled human CD137 fused to …; test: bead ELISA (chemiluminescence), IgG on biotin-human CD137-Fc on streptavidin beads; control competitor free human Fc 62.5 pmol
[3] = target: T1, biotin-labeled human CD137 fused to …; test: bead ELISA (chemiluminescence), IgG on biotin-human CD137-Fc on streptavidin beads; competitor free CD3 epsilon 62.5 pmol
[4] = target: T2, biotin-labeled human CD137 fused to human IgG1 Fc fragment (human, biotin-labeled); test: bead ELISA, IgG on biotin-human CD137-Fc; control competitor: free human IgG1 Fc 62.5 pmol
T2 construct: also called human CD137-Fc; biotin-human CD137-Fc

[5] = target: T2, biotin-labeled human CD137 fused to …; test: bead ELISA, IgG on biotin-human CD137-Fc; competitor: free CD3 epsilon 62.5 pmol
[6] = target: T2, biotin-labeled human CD137 fused to …; test: bead ELISA, IgG on biotin-human CD137-Fc; decrease with free CD3 epsilon 62.5 pmol against free Fc 62.5 pmol
[7] = target: T3, biotinylated CD3 epsilon epitope peptide (UniProt P07766 22-48, biotinylated); test: SPR (Biacore); biotinylated CD3 epsilon epitope peptide on chip via streptavidin, antibody as analyte
T3 chain: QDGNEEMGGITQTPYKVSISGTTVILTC

Binder | Signal decrease [1] | ELISA signal with Free Fc 62.5 pmol [2] | ELISA signal with Free CD3e 62.5 pmol [3] | ELISA signal, Free Fc 62.5 pmol [4] | ELISA signal, Free CD3e 62.5 pmol [5] | Signal decrease [6] | other results
dBBDu_H115/L039 (antibody, human IgG1, V domains shown, Full length IgG (human IgG1 CH1-Fc heavy chain, kappa light chain)) VH: QVQLVESGGGLVQPGRSLRLSCAASGFTFSNAWMHWVRQAPGKGLEWVAQIKDKANSYNTYYAPSVKGRFTISRDDSKNSIYLQMNSLKTEDTAVYYCRYVHYGSSYGFLFAGYGVDAWGQGTTVTVSS VL: DIVMTQSPLSLPVTPGEPASISCTSSQSLLHANRNTYLHWYQQKPGQAPRLLIYKVSNRFSGVPDRFSGSGSGTDFTLKISRVEAEDVGVYYCAQGTSAPFTFGQGTKLEIK | 97.2% | 55800 | 1550 | – | – | – | –
dBBDu_H115/L016 (antibody, human IgG1, V domains shown, Full length IgG (human IgG1 CH1-Fc heavy chain, kappa light chain)) VH: QVQLVESGGGLVQPGRSLRLSCAASGFTFSNAWMHWVRQAPGKGLEWVAQIKDKANSYNTYYAPSVKGRFTISRDDSKNSIYLQMNSLKTEDTAVYYCRYVHYGSSYGFLFAGYGVDAWGQGTTVTVSS VL: DIVMTQSPMSLPVTPGEPASISCQSSESLLHANRNTYLHWYQQKPGQAPRLLIYKVSNRFNGVPDRFSGSGSGTDFTLKISRVEAEDVGVYYCAQGTANPYTFGQGTKLEIK | 96.7% | 46800 | 1540 | – | – | – | –
dBBDu_H115/L035 (antibody, human IgG1, V domains shown, Full length IgG (human IgG1 CH1-Fc heavy chain, kappa light chain)) VH: QVQLVESGGGLVQPGRSLRLSCAASGFTFSNAWMHWVRQAPGKGLEWVAQIKDKANSYNTYYAPSVKGRFTISRDDSKNSIYLQMNSLKTEDTAVYYCRYVHYGSSYGFLFAGYGVDAWGQGTTVTVSS VL: DIVMTQSPLSLPVTPGEPASISCAASESLLHTNRNTYLHWYQQKPGQAPRLLIYKVSNRFSGVPDRFSGSGSGTDFTLKISRVEAEDVGVYYCAQGTQSPFTFGQGTKLEIK | 97.9% | 70600 | 1470 | – | – | – | –
dBBDu_H115/L014 (antibody, human IgG1, V domains shown, Full length IgG (human IgG1 CH1-Fc heavy chain, kappa light chain)) VH: QVQLVESGGGLVQPGRSLRLSCAASGFTFSNAWMHWVRQAPGKGLEWVAQIKDKANSYNTYYAPSVKGRFTISRDDSKNSIYLQMNSLKTEDTAVYYCRYVHYGSSYGFLFAGYGVDAWGQGTTVTVSS VL: DIVMTQSPLSLPVTPGEPASISCTSSQSLLHQNRNTYLHWYQQKPGQAPRLLIYKVSNRFNGVPDRFSGSGSGTDFTLKISRVEAEDVGVYYCAQGTANPFTFGQGTKLEIK | 97.9% | 72100 | 1510 | – | – | – | –
dBBDu_H115/L008 (antibody, V domains shown, Full length IgG (human IgG1 CH1-Fc heavy chain, kappa light chain); also called Du115/DUL008) VH: QVQLVESGGGLVQPGRSLRLSCAASGFTFSNAWMHWVRQAPGKGLEWVAQIKDKANSYNTYYAPSVKGRFTISRDDSKNSIYLQMNSLKTEDTAVYYCRYVHYGSSYGFLFAGYGVDAWGQGTTVTVSS VL: DIVMTQSPLSLPVTPGEPASISCQSSEELLHANRKTYLHWYQQKPGQAPRLLIYKVQNRFSGVPDRFSGSGSGTDFTLKISRVEAEDVGVYYCAQGTATPFTFGQGTKLEIK | 98.1% | 76900 | 1450 | – | – | – | –
dBBDu186/L098 (antibody, V domains shown, Purified IgG; Fab genes of the panning output converted into IgG format) VH: QVQLVESGGGLVQPGRSLRLSCAASGFTFSNAWMHWVRQAPGKGLEWVAQIKDRSNQYATYYAPSVKGRFTISRDDSKNSIYLQMNSLKTEDTAVYYCHYVHYAQASTVLPAFGVDAWGQGTTVTVSS VL: DIVMTQSPLSLPVTPGEPASISCAASEELVHINRYIFLHWYQQKPGQAPRLLIYKVSNRFIGVPDRFSGSGSGTDFTLKISRVEAEDVGVYYCAQGSQVPFTFGQGTKLEIK | – | – | – | 115000 | 15900 | 86.2% | –
dBBDu186/L108 (antibody, V domains shown, Purified IgG; Fab genes of the panning output converted into IgG format) VH: QVQLVESGGGLVQPGRSLRLSCAASGFTFSNAWMHWVRQAPGKGLEWVAQIKDRSNQYATYYAPSVKGRFTISRDDSKNSIYLQMNSLKTEDTAVYYCHYVHYAQASTVLPAFGVDAWGQGTTVTVSS VL: DIVMTQSPLSLPVTPGEPASISCRTSEELLHINRFTFLHWYQQKPGQAPRLLIYKVSNRFMGVPDRFSGSGSGTDFTLKISRVEAEDVGVYYCAQGSAVPFTFGQGTKLEIK | – | – | – | 83600 | 50800 | 39.2% | –
dBBDu189/L119 (antibody, V domains shown, Purified IgG; Fab genes of the panning output converted into IgG format) VH: QVQLVESGGGLVQPGRSLRLSCAASGFTFSNAWMHWVRQAPGKGLEWIAQIKDRSNQYATYYAPSVKGRFTISRDDSKNSIYLQMNSLKTEDTAVYYCHYVHYAQASSLLPSFGVDAWGQGTTVTVSS VL: DIVMTQSPLSLPVTPGEPASISCTASQELVHINRFIFLHWYQQKPGQAPRLLIYKVSNRFIGVPDRFSGSGSGTDFTLKISRVEAEDVGVYYCAQGSQVPFTFGQGTKLEIK | – | – | – | 88100 | 20400 | 76.9% | –
dBBDu186/L106 (antibody, V domains shown, Purified IgG; Fab genes of the panning output converted into IgG format) VH: QVQLVESGGGLVQPGRSLRLSCAASGFTFSNAWMHWVRQAPGKGLEWVAQIKDRSNQYATYYAPSVKGRFTISRDDSKNSIYLQMNSLKTEDTAVYYCHYVHYAQASTVLPAFGVDAWGQGTTVTVSS VL: DIVMTQSPLSLPVTPGEPASISCSTSEELLHINRFIFLHWYQQKPGQAPRLLIYKVANRFMGVPDRFSGSGSGTDFTLKISRVEAEDVGVYYCAQGSQVPFTFGQGTKLEIK | – | – | – | 9860 | 3090 | 68.7% | –
dBBDu186/L100 (antibody, V domains shown, Purified IgG; Fab genes of the panning output converted into IgG format) VH: QVQLVESGGGLVQPGRSLRLSCAASGFTFSNAWMHWVRQAPGKGLEWVAQIKDRSNQYATYYAPSVKGRFTISRDDSKNSIYLQMNSLKTEDTAVYYCHYVHYAQASTVLPAFGVDAWGQGTTVTVSS VL: DIVMTQSPLSLPVTPGEPASISCSASEELVHINRYIFLHWYQQKPGQAPRLLIYKVYNRFMGVPDRFSGSGSGTDFTLKISRVEAEDVGVYYCGQGSSVPFTFGQGTKLEIK | – | – | – | 102000 | 88900 | 13% | –
CE115HA000 V11L/D72A/L78I/D101Q with GGSGGS inserted between Kabat positions 99 and 100, one-arm antibody (antibody, V domains shown) VH: QVQLVESGGGLVQPGRSLRLSCAASGFTFSNAWMHWVRQAPGKGLEWVAQIKAKSNNYATYYAESVKGRFTISRADSKNSIYLQMNSLKTEDTAVYYCRYVHYGAGGSGGSYYGVQAWGQGTTVTVSS VL: DIVMTQSPLSLPVTPGEPASISCRSSQSLVHSNRNTYLHWYQQKPGQAPRLLIYKVSNRFSGVPDRFSGSGSGTDFTLKISRVEAEDVGVYYCGQGTQVPYTFGQGTKLEIKR | – | – | – | – | – | – | Kd [7]: 34.6 nM and 31.1 nM
CE115HA000 V11L/D72A/L78I/D101Q with GGSGGSGGS inserted between Kabat positions 99 and 100, one-arm antibody (antibody, V domains shown) VH: QVQLVESGGGLVQPGRSLRLSCAASGFTFSNAWMHWVRQAPGKGLEWVAQIKAKSNNYATYYAESVKGRFTISRADSKNSIYLQMNSLKTEDTAVYYCRYVHYGAGGSGGSGGSYYGVQAWGQGTTVTVSS VL: DIVMTQSPLSLPVTPGEPASISCRSSQSLVHSNRNTYLHWYQQKPGQAPRLLIYKVSNRFSGVPDRFSGSGSGTDFTLKISRVEAEDVGVYYCGQGTQVPYTFGQGTKLEIKR | – | – | – | – | – | – | Kd [7]: 43.9 nM and 35.4 nM
CE115HA000 V11L/D72A/L78I/D101Q with GGSGGGS inserted between Kabat positions 99 and 100, one-arm antibody (antibody, V domains shown) VH: QVQLVESGGGLVQPGRSLRLSCAASGFTFSNAWMHWVRQAPGKGLEWVAQIKAKSNNYATYYAESVKGRFTISRADSKNSIYLQMNSLKTEDTAVYYCRYVHYGAGGSGGGSYYGVQAWGQGTTVTVSS VL: DIVMTQSPLSLPVTPGEPASISCRSSQSLVHSNRNTYLHWYQQKPGQAPRLLIYKVSNRFSGVPDRFSGSGSGTDFTLKISRVEAEDVGVYYCGQGTQVPYTFGQGTKLEIKR | – | – | – | – | – | – | Kd [7]: 43.5 nM and 34.3 nM
CE115HA000 V11L/D72A/L78I/D101Q without insertion, one-arm antibody (antibody, human IgG1, kappa, L234A L235A, N297A, name in Kabat numbering, one-arm antibody; also called No insertion) heavy: QVQLVESGGGLVQPGRSLRLSCAASGFTFSNAWMHWVRQAPGKGLEWVAQIKAKSNNYATYYAESVKGRFTISRADSKNSIYLQMNSLKTEDTAVYYCRYVHYGAYYGVQAWGQGTTVTVSSASTKGPSVFPLAPSSKSTSGGTAALGCLVKDYFPEPVTVSWNSGALTSGVHTFPAVLQSSGLYSLSSVVTVPSSSLGTQTYICNVNHKPSNTKVDKKVEPKSCDKTHTCPPCPAPEAAGGPSVFLFPPKPKDTLMISRTPEVTCVVVDVSHEDPEVKFNWYVDGVEVHNAKTKPREEQYASTYRVVSVLTVLHQDWLNGKEYKCKVSNKALPAPIEKTISKAKGQPREPQVYTLPPSRCELTKNQVSLSCAVKGFYPSDIAVEWESNGQPENNYKTTPPVLDSDGSFFLVSKLTVDKSRWQQGNVFSCSVMHEALHNHYTQKSLSLSPDYKDDDDK EPKSSDKTHTCPPCPAPELLGGPSVFLFPPKPKDTLMISRTPEVTCVVVDVSHEDPEVKFNWYVDGVEVHNAKTKPREEQYNSTYRVVSVLTVLHQDWLNGKEYKCKVSNKALPAPIEKTISKAKGQPREPQVCTLPPSRDELTKNQVSLWCLVKGFYPSDIAVEWESNGQPENNYKTTPPVLDSDGSFFLYSKLTVDKSRWQQGNVFSCSVMHEALHNRYTQKSLSLSP light: DIVMTQSPLSLPVTPGEPASISCRSSQSLVHSNRNTYLHWYQQKPGQAPRLLIYKVSNRFSGVPDRFSGSGSGTDFTLKISRVEAEDVGVYYCGQGTQVPYTFGQGTKLEIKRTVAAPSVFIFPPSDEQLKSGTASVVCLLNNFYPREAKVQWKVDNALQSGNSQESVTEQDSKDSTYSLSSTLTLSKADYEKHKVYACEVTHQGLSSPVTKSFNRGEC | – | – | – | – | – | – | Kd [7]: 6.96 nM
